For the experiment, the target named is actin filament. In words: cell-based or functional assay.

Substance “Flag-chimera XI protein (chimeric myosin XI: Chara corallina myosin XI motor domain on the A. thaliana MYA2 backbone, FLAG-tagged)” registered a sliding velocity (in vitro sliding filament assay) of 16.2 µm/sec.

As for “wild-type A. thaliana myosin XI-2 (MYA2), expressed from the Flag-MYA2 XI gene (from UniProt Q9LKB9 1-1505)”, the sliding velocity (in vitro sliding filament assay) stood at 7 µm/sec.

Source of the values: patent publication US20130007915A1.
